Assay results from the supplement of paper PMC9170038.

Tested on: MS2 coat protein
Assay: apparent KD of MS2 coat protein; higher = weaker reporter binding
Conditions: Eterna round: R107
Experimental: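 RNA-MaP round R107: designed RNA switches with theophylline, tryptophan, arginine or FMN aptamers are transcribed on-chip within common flanks. They are titrated with SNAP-549-labelled MS2 coat protein in RNA-MaP buffer (100 mM Tris pH 7.5, 80 mM KCl, 4 mM MgCl2), without ligand or with the indicated ligand. Median apparent KD per design.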

[1] = input ligand: theophylline 20 uM
[2] = input ligand: theophylline 2 mM
[3] = input ligand: tryptophan 2.4 mM

Sequence | apparent KD of MS2 coat protein (input ligand: arginine 13.2 mM) [nM] | apparent KD of MS2 coat protein (input ligand: none) [nM] | apparent KD of MS2 coat protein [1] [nM] | apparent KD of MS2 coat protein [2] [nM] | apparent KD of MS2 coat protein [3] [nM]
AUACAUGAGGAUCACCCAUGUCUUACGGAAGGAGCGAUCAAGAGAUCAGGUAGGUCGCCGUACAUGAGGAUCACCCAUGUAGGCG [EAA NP+V+V2 #9 DOUBLE] | 19.5 | 32.3 | 33.4 | 35.7 | 31.3
UCGCCCGGGUCGGCCGCCACUGCGGUGAUGUGACAUGAGGAUCACCCAUGUUGUCAUGUGGCACAUAGGACCGGGACCCGGGCGA [Exclusion - Tryptophan B Attempt #4 (HarryS)] | 23.2 |  | 45.3 | 40.3 | 
GGACUAACCAGAAGGAGCGGCACGCAGAAACUGCAAAAUCCUCCACACGAGGAUCACCCGUGUCAGGUAGGUCGCUGGUUAGUCG | 45.8 | 48.6 | 55 | 52.5 | 48.4
UAUAUAUAUAUUGAUACCAGCAGAGAAAACAUAUAUCCUAACAUGAGGAUCACCCAUGUAUGCCCUUGGCAGCGAUAUAUAUAUA [8.A] | 24.9 |  | 28.1 |  | 23.5
AGUCCUCUGUACCCUGAUGCCCUCACUUUACGAGGACCGGUACGGCCGCCACUCGAAUCCCAACAUGAGGAUCACCCAUGUCGAC [theeternabot_exclusion_MS2_Trp_A_26] | 30 |  | 40 | 47 | 
ACAUGAGGAUCACCCAUGUCACUCGUGUUCCGAGGACCGGUACGGCCGCCACUCGGUCCUCGCGAGGAUGGUCAAAGACUAUCCA [Omei Trp A SS B v2] | 37.1 | 75.2 | 66.8 | 71.4 | 48.6
ACCCUAGCGAUCGCUCGCUAGGGUGCGGAUACCAGCGAGGUCCAUCGCCCUUGGCAGCCGAACAUGAGGAUCACCCAUGUCGGUA [#1 Same State - Theophylline A Attempt #19 (HarryS)] | 10.1 |  | 11.6 |  | 10.4
AAUAAUAGGUGAUCCUGACGAGUGGCAUAACGAGGACCGGUACGGCCGCCACUCGAACAUGAGGAUCACCCAUGUAGCCACUCGA [M'-T'-T-MS2-T'' - Design 5.b] | 32 |  | 327 | 685 | 
UCGCACAUGAGGAUCACCCAUGUACUAGAUACCAGUGACGCGGUGCACCCUUGGCAGCUGGUGCUGAGUGAUGGUUCCCUCGGCA [Exclusion Theophylline A GF8] | 53.5 |  | 137 |  | 112
AUAUUAAAGAGUGAUACCAGACUACAUGAGGAUCACCCAUGUUACAUUUAAAUAUCAUUUGUCCCUUGGCAGCACAUUAAGUACA [JR_Nu_ExcTheophyB_Sub022] | 20.9 |  | 22.1 |  | 17.5
AACAUGAGGAUCACCCAUGUAUUGGGUGAUACCAGCCUGAAUAAGGGCCCUUGGCAGCACCGCGCUAACUUUAUGUCUGCGAACC [Rebiercete] | 511 | 54.1 | 432 | 368 | 277
UGUUUGGUGCGCGAGUGUUGGAUGAUUGAUACCAGUGAAGAAGAGCGCCCUUGGCAGCGAAUCCUAACAUGAGGAUCACCCAUGU [5.V] | 39.3 |  | 57.7 |  | 51.4
AAUAAUAGGUGAUCUUGUGUCGUACCGUAACGAGGACCGGUACGGCCGCCACUCGAACAUGAGGAUCACCCAUGUAUGUAUGAUA [whbob_SS_trypto A_f7] | 57.8 |  | 301 | 497 | 
AGUGUUAUAACUGAUACCAGACUUUUGCUUAUACAUGAGGAUCACCCAUGUAAAAUGGUUGUCCCUUGGCAGCAGAAAAUACACA [JR_SSTheophyB_Sub007] | 81.6 |  | 104 |  | 134
CUAUUUAUAGCGGCCGCCACUUACUCAUGAGGUAACAACAUGAGGAUCACCCAUGUUUGAGGAUCAAGGACCGGGCUAUGGAUAG [AstrosSSTryB#12] | 24.5 |  | 37 | 31.5 | 
GGAGUAGGAAACUAUUCCAAUCCUCGUGAACGAGGACCGGUACGGCCGCCACUCGAUAAUUAAUAACAUGAGGAUCACCCAUGUA [Ex Tryptophan A 21] | 36.6 |  | 80.4 | 89 | 
AAUUACAUGAGGAUCACCCAUGUGGCACAACGAGGACCGGUACGGCCGCCACUCGGUGCUGUACCACAAAACAUGCACGGGAAAG [theeternabot_sameState_MS2_Trp_A_6] | 33.1 | 31.6 | 81.4 | 39 | 30.9

Sequence | apparent KD of MS2 coat protein (input ligand: arginine 13.2 mM) [nM] | apparent KD of MS2 coat protein (input ligand: none) [nM] | apparent KD of MS2 coat protein [1] [nM] | apparent KD of MS2 coat protein [2] [nM] | apparent KD of MS2 coat protein [3] [nM]
GGAUCAGGAUCGGCCGCCACUGAUAGUGAUCCAACGACAUGAGGAUCACCCAUGUACAUUUUAAUCAGGACCGGGAUCAAGUUCC [Tryp B Ex t7] | 40 |  | 189 | 327 | 
GGUAUGUAUUCGGAAACGAAUGCAUACCAACGAGGACCGGUACGGCCGCCACUCGGGCCGUGAUCACAUGAGGAUCACCCAUGUA [Ex Tryptophan A 5] | 29.8 |  | 49.2 | 42.3 | 
UAUAAUAACUCGGCCGCCACUGGCACAUGAGGAUCACCCAUGUCUAUAUAUAAUAUAUAGUUGCACAGGACCGGGAGAUAUAUAU [Exclusion - Tryptophan B] | 10.5 |  | 12.5 | 10.5 | 
UGUUAUUUCCGAAGGAGCGGGAUACAUGAGGAUCACCCAUGUACAUGAGGAUCAACAUGAACCCAGGUAGGUCGCGGAUUUUGUC [Exclusion Arginine B 3] | 34.1 | 405 | 300 | 379 | 228
ACAUGAGGAUCACCCAUGUGUGUAAAUCCUCGAGGACCGGUACGGCCGCCACUCGAUCGAGUGUAAGUUGAAUGUAACAUUCAAC [whbob_SS_trypto A_2s8] | 42.6 |  | 118 | 108 | 
UAUUUGGUGCGCGAGCGCUGGAUAAUUGAUACCAGUGAAGAAGAGCGCCCUUGGCAGCGAAUCCUAACAUGAGGAUCACCCAUGU [5.R] | 33.1 |  | 54.1 |  | 38.7
AAUCGUAAGGCGGCCGCCACUACACAUGAGGAUCACCCAUGUCUCGCGGGCUUGCGUUGGGAUAGUAGGACCGGGCCAGUAAUAA [Exclusion - Tryptophan B (Freestyle 13)] | 17.1 | 26.2 | 33.7 | 28.3 | 25.1
ACAUGAGGAUCACCCAUGUAGCCUAGGGAAGGAGCGGCGUAAGAGCCAGGUAGGUCGCCCGCAUGAGGAUCACCCAUGUCGAGGG [Same State Arginine A GF10] | 30.9 | 38 | 40.9 | 33.1 | 29.3
AGUCUCAGUGGAAGGAGCGUCGCGACUGCUACAUGAGGAUCACCCAUGUCGCCUUGAGCGCGACAGGUAGGUCGCCACGGUAGGC [Erraraorle] | 14.1 | 17.5 | 29.6 | 20.8 | 18.2
AUAUGGCGAGAUGAUACCAGACACAUGAGGAUCACCCAUGUUGAUGGUAAGUCUGCAUAUGUCCCUUGGCAGCAUAGCGACAUAU [X-TheoB-ms2@23] | 8.63 |  | 11.9 |  | 8.34
UAAUAAUUCCUCAUGUCACGAGUGGCAUAACGAGGACCGGUACGGCCGCCACUCGAACAUGAGGAUCACCCAUGUAGCCACUCGA [M'-T'-T-MS2-T'' - Design 4] | 56.7 |  | 286 | 474 | 
CCCAAUUUCCGAGAUAUGGGUCCAACUAAACGAGGACCGGUACGGCCGCCACUCGACUACAAACAUGAGGAUCACCCAUGUAAAG [theeternabot_exclusion_MS2_Trp_A_40] | 17.6 |  | 20 | 19.8 | 
UAGGUGAUCUUCAACGGAAAACGUUGUGAUACCAGCCAACAAUACGGCCCUUGGCAGCACAUGAGGAUCACCCAUGUGUACACCG [Vetizaatdi] | 25.6 |  | 48.7 |  | 30.6
UCGCUCUGGGUGAAUCCCAGAGAUGUGGAAGGAGCGGACGAAAGUCCAGGUAGGUCGCCAUCGAACAUGAGGAUCACCCAUGUAC [Same State - Arginine A (Freestyle 26)] | 42.7 | 46 | 77.5 | 75.6 | 46.2
GAUUUAACAAAAGUUAGAUCAGUGGGUGAACGAGGACCGGUACGGCCGCCACUCGGACAUGAGGAUCACCCAUGUCCAUGUGAAA [AstrosExyTryA#20] | 15.3 |  | 19.4 | 18.6 | 
UUAAUCAUGGAUGAAAACAUUUAUGCAGAAGGAGCGUGAUAAAACACAGGUAGGUCGCUGAAGGGAACAUGAGGAUCACCCAUGU [AstrosSSArgA#17] | 35.9 | 65.1 | 74.5 | 69.5 | 41.3
